Measured values published in IntAct's records for PubMed 22252508.

B1: DNA mismatch repair protein Mlh1 (Homo sapiens), P40692 (parent)
chain: MSFVAGVIRRLDETVVNRIAAGEVIQRPANAIKEMIENCLDAKSTSIQVIVKEGGLKLIQIQDNGTGIRKEDLDIVCERFTTSKLQSFEDLASISTYGFRGEALASISHVAHVTITTKTADGKCAYRASYSDGKLKAPPKPCAGNQGTQITVEDLFYNIATRRKALKNPSEEYGKILEVVGRYSVHNAGISFSVKKQGETVADVRTLPNASTVDNIRSIFGNAVSRELIEIGCEDKTLAFKMNGYISNANYSVKKCIFLLFINHRLVESTSLRKAIETVYAAYLPKNTHPFLYLSLEISPQNVDVNVHPTKHEVHFLHEESILERVQQHIESKLLGSNSSRMYFTQTLLPGLAGPSGEMVKSTTSLTSSSTSGSSDKVYAHQMVRTDSREQKLDAFLQPLSKPLSSQPQAIVTEDKTDISSGRARQQDEEMLELPAPAEVAAKNQSLEGDTTKGTSEMSEKRGPTSSNPRKRHREDSDVEMVEDDSRKEMTAACTPRRRIINLTSVLSLQEEINEQGHEVLREMLHNHSFVGCVNPQWALAQHQTKLYLLNTTKLSEELFYQILIYDFANFGVLRLSEPAPLFDLAMLALDSPESGWTEEDGPKEGLAEYIVEFLKKKAEMLADYFSLEIDEEGNLIGLPLLIDNYVPPLEGLPIFILRLATEVNWDEEKECFESLSKECAMFYSIRKQYISEESTLSGQQSEVPGSIPNSWKWTVEHIVYKALRSHILPPKHFTEDGNILQLANLPDLYKVFERC
partner: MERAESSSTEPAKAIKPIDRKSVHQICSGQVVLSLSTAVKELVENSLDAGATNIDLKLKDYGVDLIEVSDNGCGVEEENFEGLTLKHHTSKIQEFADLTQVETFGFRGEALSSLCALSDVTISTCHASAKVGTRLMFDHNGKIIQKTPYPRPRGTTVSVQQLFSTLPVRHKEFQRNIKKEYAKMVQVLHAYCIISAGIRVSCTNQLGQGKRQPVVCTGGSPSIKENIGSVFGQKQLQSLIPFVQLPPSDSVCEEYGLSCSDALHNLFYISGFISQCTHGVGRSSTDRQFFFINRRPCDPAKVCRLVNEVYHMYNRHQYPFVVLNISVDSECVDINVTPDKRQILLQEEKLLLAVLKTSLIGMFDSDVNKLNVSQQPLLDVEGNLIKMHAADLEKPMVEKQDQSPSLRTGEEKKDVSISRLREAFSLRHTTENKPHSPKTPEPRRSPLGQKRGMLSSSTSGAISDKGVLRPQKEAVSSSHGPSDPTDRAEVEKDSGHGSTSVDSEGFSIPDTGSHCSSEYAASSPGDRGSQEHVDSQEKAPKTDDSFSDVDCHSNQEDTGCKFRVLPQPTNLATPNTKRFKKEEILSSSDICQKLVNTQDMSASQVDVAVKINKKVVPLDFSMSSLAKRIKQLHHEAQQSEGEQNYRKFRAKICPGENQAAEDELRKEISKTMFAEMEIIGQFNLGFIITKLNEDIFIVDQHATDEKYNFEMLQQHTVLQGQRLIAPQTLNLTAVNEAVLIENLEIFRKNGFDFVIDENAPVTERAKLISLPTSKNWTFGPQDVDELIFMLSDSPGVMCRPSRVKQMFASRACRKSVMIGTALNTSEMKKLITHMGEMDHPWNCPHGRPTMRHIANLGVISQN
B2: Tumor protein 63 (Homo sapiens), Q9H3D4 (parent)
chain: MNFETSRCATLQYCPDPYIQRFVETPAHFSWKESYYRSTMSQSTQTNEFLSPEVFQHIWDFLEQPICSVQPIDLNFVDEPSEDGATNKIEISMDCIRMQDSDLSDPMWPQYTNLGLLNSMDQQIQNGSSSTSPYNTDHAQNSVTAPSPYAQPSSTFDALSPSPAIPSNTDYPGPHSFDVSFQQSSTAKSATWTYSTELKKLYCQIAKTCPIQIKVMTPPPQGAVIRAMPVYKKAEHVTEVVKRCPNHELSREFNEGQIAPPSHLIRVEGNSHAQYVEDPITGRQSVLVPYEPPQVGTEFTTVLYNFMCNSSCVGGMNRRPILIIVTLETRDGQVLGRRCFEARICACPGRDRKADEDSIRKQQVSDSTKNGDGTKRPFRQNTHGIQMTSIKKRRSPDDELLYLPVRGRETYEMLLKIKESLELMQYLPQHTIETYRQQQQQQHQHLLQKQTSIQSPSSYGNSSPPLNKMNSMNKLPSVSQLINPQQRNALTPTTIPDGMGANIPMMGTHMPMAGDMNGLSPTQALPPPLSMPSTSHCTPPPPYPTDCSIVSFLARLGCSSCLDYFTTQGLTTIYQIEHYSMDDLASLKIPEQFRHAIWKGILDHRQLHEFSSPSHLLRTPSSASTVSVGSSETRGERVIDAVRFTLRQTISFPPRDEWNDFNFDMDARRNKQQRIKEEGE
partner: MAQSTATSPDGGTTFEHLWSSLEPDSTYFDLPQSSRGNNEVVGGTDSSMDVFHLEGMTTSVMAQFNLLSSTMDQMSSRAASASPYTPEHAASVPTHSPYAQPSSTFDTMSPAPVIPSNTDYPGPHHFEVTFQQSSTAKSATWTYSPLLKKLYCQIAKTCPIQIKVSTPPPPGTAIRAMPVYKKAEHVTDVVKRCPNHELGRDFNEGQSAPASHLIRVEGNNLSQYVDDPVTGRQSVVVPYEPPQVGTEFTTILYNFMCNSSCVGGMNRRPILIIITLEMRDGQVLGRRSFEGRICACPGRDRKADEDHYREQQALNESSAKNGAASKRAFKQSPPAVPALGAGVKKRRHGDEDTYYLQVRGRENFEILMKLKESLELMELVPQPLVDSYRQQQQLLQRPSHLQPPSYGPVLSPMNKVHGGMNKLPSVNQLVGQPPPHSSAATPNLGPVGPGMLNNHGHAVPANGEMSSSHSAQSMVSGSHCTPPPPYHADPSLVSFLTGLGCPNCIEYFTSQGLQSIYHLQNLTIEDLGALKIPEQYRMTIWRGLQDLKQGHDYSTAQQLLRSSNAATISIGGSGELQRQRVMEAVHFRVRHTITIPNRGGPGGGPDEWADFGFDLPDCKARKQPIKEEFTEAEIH
B3: Actin nucleation-promoting factor WAS (Homo sapiens), P42768 (parent)
chain: MSGGPMGGRPGGRGAPAVQQNIPSTLLQDHENQRLFEMLGRKCLTLATAVVQLYLALPPGAEHWTKEHCGAVCFVKDNPQKSYFIRLYGLQAGRLLWEQELYSQLVYSTPTPFFHTFAGDDCQAGLNFADEDEAQAFRALVQEKIQKRNQRQSGDRRQLPPPPTPANEERRGGLPPLPLHPGGDQGGPPVGPLSLGLATVDIQNPDITSSRYRGLPAPGPSPADKKRSGKKKISKADIGAPSGFKHVSHVGWDPQNGFDVNNLDPDLRSLFSRAGISEAQLTDAETSKLIYDFIEDQGGLEAVRQEMRRQEPLPPPPPPSRGGNQLPRPPIVGGNKGRSGPLPPVPLGIAPPPPTPRGPPPPGRGGPPPPPPPATGRSGPLPPPPPGAGGPPMPPPPPPPPPPPSSGNGPAPPPLPPALVPAGGLAPGGGRGALLDQIRQGIQLNKTPGAPESSALQPPPQSSEGLVGALMHVMQKRSRAIHSSDEGEDQAGDEDEDDEWDD

Variants of: B1
Settings: with pms2_human PMS2, P54278

Variant | effect of a mutation on the interaction
I107R | disrupting interaction strength
I68N | disrupting interaction strength
Q149H | with no effect
L259S | with no effect

More lines, now with the values ahead:

effect of a mutation on the interaction | Variant
with no effect | N338S
disrupting interaction strength | Y293D
with no effect | H381Y

Variants of: B2
Settings: with p73_human TP73, O15350

effect of a mutation on the interaction | Variant
decreasing interaction strength | I549T
decreasing interaction strength | F565L
decreasing interaction strength | R594P
decreasing interaction strength | S580P

Variants of: B3
Settings: with cdc42_human CDC42, P60953
cdc42_human CDC42, P60953, sequence (P60953 whole entry, looked up): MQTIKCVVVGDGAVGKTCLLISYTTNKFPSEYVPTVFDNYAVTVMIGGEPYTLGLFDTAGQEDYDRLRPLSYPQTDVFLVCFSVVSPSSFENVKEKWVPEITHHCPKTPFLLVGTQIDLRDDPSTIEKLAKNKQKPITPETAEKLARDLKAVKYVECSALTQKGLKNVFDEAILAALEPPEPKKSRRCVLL

effect of a mutation on the interaction | Variant
with no effect | MSGGPMGGRPGGRGAPAVQQNIPSTLLQDHENQRLFEMLGGKCLTLATAVVQLYLALPPGAEHWTKEHCGAVCFVKDNPQKSYFIRLYGLQAGRLLWEQELYSQLVYSTPTPFFHTFAGDDCQAGLNFADEDEAQAFRALVQEKIQKRNQRQSGDRRQLPPPPTPANEERRGGLPPLPLHPGGDQGGPPVGPLSLGLATVDIQNPDITSSRYRGLPAPGPSPADKKRSGKKKISKADIGAPSGFKHVSHVGWDPQNGFDVNNLDPDLRSLFSRAGISEAQLTDAETSKLIYDFIEDQGGLEAVRQEMRRQEPLPPPPPPSRGGNQLPRPPIVGGNKGRSGPLPPVPLGIAPPPPTPRGPPPPGRGGPPPPPPPATGRSGPLPPPPPGAGGPPMPPPPPPPPPPPSSGNGPAPPPLPPALVPAGGLAPGGGRGALLDQIRQGIQLNKTPGAPESSALQPPPQSSEGLVGALMHVMQKRSRAIHSSDEGEDQAGDEDEDDEWDD [R41G]
with no effect | MSGGPMGGRPGGRGAPAVQQNIPSTLLQDHENQRLFEMLGRKCLTLATAVVQLYLALPPGAEHWTKEHCGAVCFVKDNPQKSYFIRLYGLQAGRLLWEQELYSQLVYSTPTPFFHTFAGDDCQAGLNFADKDEAQAFRALVQEKIQKRNQRQSGDRRQLPPPPTPANEERRGGLPPLPLHPGGDQGGPPVGPLSLGLATVDIQNPDITSSRYRGLPAPGPSPADKKRSGKKKISKADIGAPSGFKHVSHVGWDPQNGFDVNNLDPDLRSLFSRAGISEAQLTDAETSKLIYDFIEDQGGLEAVRQEMRRQEPLPPPPPPSRGGNQLPRPPIVGGNKGRSGPLPPVPLGIAPPPPTPRGPPPPGRGGPPPPPPPATGRSGPLPPPPPGAGGPPMPPPPPPPPPPPSSGNGPAPPPLPPALVPAGGLAPGGGRGALLDQIRQGIQLNKTPGAPESSALQPPPQSSEGLVGALMHVMQKRSRAIHSSDEGEDQAGDEDEDDEWDD [E131K]
decreasing interaction strength | MSGGPMGGRPGGRGAPAVQQNIPSTLLQDHENQRLFEMLGRKCLTLATAVVQLYLALPPGAEHWTKEHCGAVCFVKDNPQKSYFIRLYGLQAGRLLWEQELYSQLVYSTPTPFFHTFAGDDCQAGLNFADEDEAQAFRALVQEKIQKRNQRQSGDRRQLPPPPTPANEERRGGLPPLPLHPGGDQGGPPVGPLSLGLATVDIQNPDITSSRYRGLPAPGPSPADKKRSGKKKISKADIGAPSGFKHVSHVGWDPQNGFDVNNLDPDLRSLFSRAGISEAQLTDAETSKLIYDFTEDQGGLEAVRQEMRRQEPLPPPPPPSRGGNQLPRPPIVGGNKGRSGPLPPVPLGIAPPPPTPRGPPPPGRGGPPPPPPPATGRSGPLPPPPPGAGGPPMPPPPPPPPPPPSSGNGPAPPPLPPALVPAGGLAPGGGRGALLDQIRQGIQLNKTPGAPESSALQPPPQSSEGLVGALMHVMQKRSRAIHSSDEGEDQAGDEDEDDEWDD [I294T]
